Assay results from US20160177324A1, “NOVEL PROTEIN AND GENE RELATED TO FLAVONOID O-METHYLTRANSFERASE (FOMT) AND THEIR USES THEREFORE” (INSTITUTE OF BOTANY, THE CHINESE ACADEMY OF SCIENCES, priority 2013, published 2016).

Assays:
[1] = Comparison of activities among recombinant polypeptides with site mutagenesis; assay type: biochemical; conditions: Cy3G5G as substrate
Description: (§1) The reaction system was according to Hugueney et al. with some modification (Hugueney, P., et al., A novel cation-dependent O-methyltransferase involved in anthocyanin methylation in grapevine. Plant Physiology, 2009. 150(4): p. 2057-2070.). Purified recombinant FOMT (2 μg) was assayed in a final volume of 200 μL containing 200 μM SAM, 1 mM MgCl2, 14 mM β-mercaptoethanol, 100 mM Tris, pH 7.5, and 20 μM flavonoid substrates. Incubation was performed at 35° C. and stopped with 200 μL methanol containing 2% formic acid. For enzyme kinetic studies, purified FOMT was incubated based on the above condition with the exception that a range of substrate concentrations from 5 to 200 μM were used for Km determination. Reaction product was analyzed by a Dionex HPLC system (Sunnyvale, Calif.), equipped with a P680 HPLC pump, an UltiMate 3000 autosampler, a TCC-100 thermostated column compartment and a Dionex PDA100 photodiode array detector. The analytical column was C18 column of ODS 80Ts QA (150 mm×4.6 mm, 5 μm i.d., Tosoh, Tokyo) protected with a C18 guard cartridge (Shanghai ANPEL Scientific Instrument, Shanghai). The following solvent and gradient were used: A, 10% aqueous formic acid; B, methanol; constant gradient from 10 to 36% B within 15 min and back to 10% B in 3 min; the flow rate was 0.8 mL min^−1; Column temperature was maintained at 35° C.; 20 μL of analyte was injected. Chromatograms were obtained at 525 nm for anthocyanins and 350 nm for other flavonoids, and photodiode array spectra were recorded from 200 to 800 nm. Km and Vmax values were calculated from Lineweaver-Burk plots.
To validate the key amino acid responsible for the activity, site-directed mutagenesis was carried out using the PCR method and Fast Mutagenesis System (TransGen), and primer sequences used are given in Table 1. Four constructs were built following the template sequence of PtFOMT, named as PtFOMT-G13E, PtFOMT-T85A, PtFOMT-R87L, and PtFOMT-T205R. The corresponding recombinant proteins were purified and the catalytic activities were examined. […] The other mutants have no significant improved activity compared with PtFOMT. The leucine at 87-position is a vital residue for the methyltransferase activity.

[2] = Biochemical characterization of PsFOMT reaction conditions (pH, temperature, divalent cations, Mg2+ concentration)
Description: For quantitative analyses, reaction conditions were optimized. The pH dependence of FOMTs activity was assessed in the pH range of 4.5 to 8.5 using MES (4.5-6.5) and Tris-HCl (7.5-8.5) buffer. The effect of divalent cations on enzyme activity was estimated by adding to the reaction mixture containing 10 mM MgCl2, CaCl2, ZnCl2, MnCl2, CoCl2 or EDTA. The proper concentration of metal ion was assessed by testing different concentrations of MgCl2 (0.1, 0.2, 0.5, 1.0, 5.0 and 10 mM). Incubation temperature was set at 25, 30, 35 and 40° C. to detect the effect on enzyme activity.
as §1

[3] = tested on: Fragaria×ananassa cv. 'Hongyan' fruits; assay: Transient expression in strawberry fruit (coexpression with PAP1); assay type: in vivo
Description: A strawberry cultivar, Fragaria×ananassa cv. ‘Hongyan’ (The Beijing Agricultural Technology Extension Station) with fruits turning red were chosen as subjects. A single colony of Agrobacterium strain EHA105 with pBI121-FOMT construct was inoculated, and the pellet were centrifuged and washed with infiltration buffer (50 mM Mes, pH 5.6, 2 mM Na3PO4, 0.5% glucose (w/v), and 100 mM acetosyringone) according to Hoffmann et al. (Hoffmann, T., G. Kalinowski, and W. Schwab, RNAi-induced silencing of gene expression in strawberry fruit (Fragaria×ananassa) by agroinfiltration: a rapid assay for gene function analysis. Plant Journal, 2006. 48(5): p. 818-826.). The bacterial suspension was diluted with infiltration buffer to adjust the inoculum concentration to OD600 0.1-0.3. A syringe infiltration method was used to transient transform strawberry fruits. The infiltrated fruits were harvested after four days for anthocyanin content analyses as follow. […] The MS conditions were listed as follow: negative-ion (NI) mode; capillary voltage of 3.5 kV; a nebulization pressure of 241.3 kPa; and a gas (N2) temperature of 350° C. with flow rate of 6.0 L min^−1 Capillary offset voltage was 77.2 V. MS spectra were recorded over the range from m/z 50-1000.

B1: PsFOMT: flavonoid O-methyltransferase from tree peony Paeonia suffruticosa cv. 'Gunpohden', SEQ ID NO: 3; recombinant MBP fusion protein (protein, listed as Paeonia suffruticosa)
chain: MAESDRKGILKSEALLKYILETSVYPREHEQLKQLRQATVDKYKYWSVMNVPADEGQFLSMLLKIMNAKKTIEVGVFTGYSLLTAALALPTDAKITAIDPDGEAYETGLPFIKKAGVEHKINYIQADAMSVLDDLVTNGKEEGSFDFAFVDADKENYAKYHEPLMKLVKIGGIIGYDNTLWFGSVALSDGDEMKEFQEKGRRIFREFNTFLAADPRIELAHISIGDGLALCRRLY
modifications: MBP fusion
notes: recombinant MBP fusion protein
For B1, the “Activity (%), portion of recombinant protein activity compared with PsFOMT” value ([1]; Incubation 5 min) was 100%, the “Activity (%), portion of recombinant protein activity compared with PsFOMT” value ([1]; Incubation 30 min) was 100% and the “activity in the presence of EDTA” value ([2]; 10 mM EDTA) was “could not been detected”. The “influence of different divalent cations on activity” value ([2]; 10 mM MgCl2, CaCl2, ZnCl2, MnCl2, CoCl2) was “most active in the presence of Mg^2+”, the “effect of increasing incubation temperature on activity” value ([2]; 25-40° C.) was “accelerated” and the “optimal concentration of Mg^2+” value ([2]; MgCl2 0.1-10 mM tested) was 1.0 mM. For the same molecule, the pH optimum ([2]; on the substrate of Qu3R) was 7.5, the “pH dependence range of activity in vitro” value ([2]; substrate Qu3R, pH 4.5 to 8.5 tested) was 6.5-8.5 and the “proportion of methylated products (Pn type) to precursors (Cy type)” value [3] was “more than that of PtFOMT”.
